Tested on: Escherichia coli TOP10
Experiment: shrunken log2 fold change of peptide-encoding DNA abundance (4.5 h post-induction vs induction); higher = less antimicrobial activity (less host growth inhibition)
Conditions: time post-induction: 4.5 h; library: site-saturation at positions 5, 18, 19, 20
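Also: peptides expressed intracellularly from a pBAD plasmid library in pooled LB shake-flask culture, induced with 0.3% L-arabinose, DNA abundance read by NGS, three biological replicates, DESeq2 with apeglm shrinkage.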

Sequence	shrunken log2 fold change
RRIRARPPRLPRPRPRPTHWPRP	0.863
RRIRGRPPRLPRPRPRPMGDPRP	0.783
RRIRERPPRLPRPRPRPKIRPRP	-0.121
RRIRDRPPRLPRPRPRPNGMPRP	-0.0609
RRIRWRPPRLPRPRPRPQYCPRP	-0.198
RRIRYRPPRLPRPRPRPVLCPRP	-0.272
RRIRVRPPRLPRPRPRPWRAPRP	0.414
RRIRWRPPRLPRPRPRPLMHPRP	0.0245
RRIRVRPPRLPRPRPRPWQIPRP	0.00686
RRIRFRPPRLPRPRPRPFGSPRP	-0.00247
RRIRNRPPRLPRPRPRPYCMPRP	-0.776
RRIRNRPPRLPRPRPRPFMIPRP	-0.294
RRIRHRPPRLPRPRPRPYVKPRP	-0.509
RRIRGRPPRLPRPRPRPDFHPRP	-0.0976
RRIRFRPPRLPRPRPRPKSHPRP	-0.506
RRIRFRPPRLPRPRPRPIAMPRP	0.091
RRIRCRPPRLPRPRPRPVNYPRP	-0.376
RRIRRRPPRLPRPRPRPLSIPRP	-0.288
RRIRHRPPRLPRPRPRPDFAPRP	-1.07
RRIRNRPPRLPRPRPRPIARPRP	-0.0163
RRIRNRPPRLPRPRPRPHYKPRP	-0.333
RRIRNRPPRLPRPRPRPVIKPRP	-0.375
RRIRGRPPRLPRPRPRPPLGPRP	0.844
RRIRRRPPRLPRPRPRPIAVPRP	-0.0851
RRIRGRPPRLPRPRPRPDGQPRP	0.175

Sequence	shrunken log2 fold change
RRIRYRPPRLPRPRPRPGWKPRP	0.00711
RRIRIRPPRLPRPRPRPLMRPRP	0.466
RRIRQRPPRLPRPRPRPKALPRP	-0.0462
RRIRRRPPRLPRPRPRPIYYPRP	-0.192
RRIRIRPPRLPRPRPRPVRSPRP	0.373
RRIRPRPPRLPRPRPRPRDHPRP	0.279
RRIRPRPPRLPRPRPRPFPWPRP	-0.0429
RRIRIRPPRLPRPRPRPGGQPRP	0.112
RRIRGRPPRLPRPRPRPGCTPRP	0.885
RRIRKRPPRLPRPRPRPLEWPRP	-0.0047
RRIRPRPPRLPRPRPRPYMVPRP	-1.09
RRIRIRPPRLPRPRPRPCADPRP	-0.289
RRIRRRPPRLPRPRPRPYYTPRP	1.46
RRIRSRPPRLPRPRPRPIVIPRP	-0.872
RRIRPRPPRLPRPRPRPRMCPRP	0.152
RRIRMRPPRLPRPRPRPLLHPRP	0.228
RRIRSRPPRLPRPRPRPSKSPRP	-0.361
RRIRSRPPRLPRPRPRPAVCPRP	0.185
RRIRVRPPRLPRPRPRPKCGPRP	0.0731
RRIRERPPRLPRPRPRPRTRPRP	0.12
RRIRKRPPRLPRPRPRPRSTPRP	0.177
RRIRHRPPRLPRPRPRPKFPPRP	0.442
RRIRVRPPRLPRPRPRPLGAPRP	0.352
RRIRLRPPRLPRPRPRPEQMPRP	0.126
RRIRFRPPRLPRPRPRPKSMPRP	0.102

Sequence	shrunken log2 fold change
RRIRWRPPRLPRPRPRPPTMPRP	0.264
RRIRLRPPRLPRPRPRPKYIPRP	-0.603
RRIRARPPRLPRPRPRPSAKPRP	0.471
RRIRKRPPRLPRPRPRPAKEPRP	-0.0233
RRIRERPPRLPRPRPRPYQPPRP	0.0223
RRIRYRPPRLPRPRPRPIDDPRP	-1.19
RRIRDRPPRLPRPRPRPILEPRP	-0.0842
RRIRWRPPRLPRPRPRPNWVPRP	0.0816
RRIRVRPPRLPRPRPRPYWNPRP	-0.574
RRIRCRPPRLPRPRPRPIIHPRP	-0.799
RRIRQRPPRLPRPRPRPFGEPRP	0.287
RRIRKRPPRLPRPRPRPNEQPRP	0.11
RRIRHRPPRLPRPRPRPKAVPRP	-0.00256
RRIRTRPPRLPRPRPRPACQPRP	0.0771
RRIRLRPPRLPRPRPRPNPHPRP	-0.07
RRIRNRPPRLPRPRPRPTSRPRP	-0.129
RRIRFRPPRLPRPRPRPTPEPRP	0.189
RRIRERPPRLPRPRPRPADPPRP	-0.35
RRIRKRPPRLPRPRPRPYCIPRP	-0.0175
RRIRERPPRLPRPRPRPAREPRP	0.0588
RRIRLRPPRLPRPRPRPHRGPRP	-0.00203
RRIRHRPPRLPRPRPRPKKCPRP	-0.225
RRIRQRPPRLPRPRPRPIHIPRP	-0.187
RRIRGRPPRLPRPRPRPFSYPRP	0.0924
RRIRCRPPRLPRPRPRPWDDPRP	0.0755
